Test results as given in patent US20140213523A1 (TIVORSAN PHARMACEUTICALS, published 2014).

Target: the molecule itself
Assay: Analytical ultracentrifugation (sedimentation velocity) at three concentrations, 20 mM Tris pH 8, 0.5 M NaCl, 20 °C; self-association of T2-rhBGN (M form to D form)
Procedure: FIG. 1. Analytical ultracentrifugation of HIC pool purified from CHO clone 57.
T2-rhBGN was purified from conditioned media of CHO clone 57 and 171 and HEK 293 clone 2 by a combination of anion exchange and hydrophobic interaction (HIC). Analytical ultracentrifugation (AUC) of HIC pool purified from CHO Clone 57 resolved into two sedimentation peaks: M with a sedimentation coefficient: s_{20,w}≈2.88 and D with coefficient s_{20,w}≈4.28 (FIG. 1). […] Experiments were performed at 20° C., in a Beckman Optima XL-I analytical ultracentrifuge. Spin Analytical charcoal upon 12 mm double-sector centerpieces were used in an eight-hole AN 50 Ti rotor at 45,000 rpm. Radial absorption scans were measured at λ=280 nm. Sedfit 12.44 was used for data analysis, with a 68% confidence limit (analyticalultracentrifugation.com). Sedimentation coefficients were corrected to standard s_{20,w} conditions using the experimental buffer density and buffer viscosity as calculated with […] (sednterp.unh.edu). Buffer: 20 mM Tris, pH 8, 0.5M NaCl; viscosity=0.01002 Poise; density=1.004989 g/mL. Partial specific volume, v-bar=0.74413 mL/g calculated from amino acid composition with Sednterp.

B1: T2-rhBGN (T2 recombinant human biglycan) (other)
chain: DEEAAGADTAGVLDPDSVTPTYSAMCPFGCHCHLRVVQCSDLGLKSVPKEISPDTTLLDLQNNDISELRKDDFKGLQHLYALVLVNNKISKIHEKAFSPLRKLQKLYISKNHLVEIPPNLPSSLVELRIHDNRIRKVPKGVFSGLRNMNCIEMGGNPLENSGFEPGAFDGLKLNYLRISEAKLTGIPKDLPETLNELHLDHNKIQAIELEDLLRYSKLYRLGLGHNQIRMIENGSLSFLPTLRELHLDNNKLARVPSGLPDLKLLQVVYLHSNNITKVGVNDFCPMGFGVKRAYYNGISLFNNPVPYWEVQPATFRCVTDRLAIQFGNYKK
modifications: N-linked glycans (M and D forms differ in N-glycan profile); no GAG side chains
notes: Purified from conditioned medium of CHO clone 57 by anion exchange and HIC; The pool is a mixture of the M form (generally monomeric) and the D form (generally dimeric); No tags are stated; also called HIC pool; M-rhBGN
**Q.** For B1, which Kd is on record?
**A.** ~50 µM
